Assay results reported in US20190046657A1.

Columns and labels:
[1] = molecular target: mannose-6-phosphate receptor (M6PR); assay: SPR (BIACORE T200), M6PR amine-coupled to CM5 chip, analyte 200 nM to 12.5 nM in HBS-EP
[2] = molecular target: mannose-6-phosphate receptor (M6PR) expressed on CCD986SK cells (human skin fibroblasts) (human); assay: cell-based or functional assay
[3] = molecular target: mannose-6-phosphate receptor (M6PR); assay: SPR (BIACORE T200), M6PR on CM5 chip; the reference itself
[4] = molecular target: mannose-6-phosphate receptor (M6PR); assay: SPR (BIACORE T200), M6PR amine-coupled to CM5 chip, analyte 100 nM to 6.24 nM, HBS-EP pH 7.5, 1:1 Langmuir model
[5] = molecular target: mannose-6-phosphate receptor (M6PR); assay: SPR (BIACORE T200), M6PR amine-coupled to CM5 chip, analyte 50 nM to 3.125 nM, HBS-EP pH 7.5, 1:1 Langmuir model
[6] = molecular target: mannose-6-phosphate receptor (M6PR); assay: SPR, summary table; relative to galsulfase
[7] = molecular target: mannose-6-phosphate receptor (M6PR); assay: SPR, summary table; relative to agalsidase β
[8] = molecular target: mannose-6-phosphate receptor (M6PR); assay: SPR (BIACORE T200), M6PR on CM5 chip; relative to agalsidase beta
[9] = molecular target: mannose-6-phosphate receptor (M6PR); assay: SPR (BIACORE T200), M6PR amine-coupled to CM5 chip
[10] = molecular target: mannose-6-phosphate receptor (M6PR); assay: SPR (BIACORE T200), M6PR amine-coupled to CM5 chip, analyte 200 nM to 12.5 nM, HBS-EP pH 7.5, 1:1 Langmuir model
[11] = molecular target: mannose-6-phosphate receptor (M6PR); assay: SPR, summary table; relative to imiglucerase
[12] = molecular target: mannose-6-phosphate receptor (M6PR); assay: SPR (BIACORE T200), M6PR amine-coupled to CM5 chip, analyte 100 nM to 6.25 nM, HBS-EP pH 7.5, 1:1 Langmuir model
[13] = molecular target: mannose-6-phosphate receptor (M6PR); assay: SPR, summary table; relative to iduronidase

“agalsidase β (from UniProt P06280 32-429) (enzyme)” showed a Kd [1] of 20 nM, a koff [1] of 0.00273 s⁻¹ and a kon [1] of 135000 M⁻¹ s⁻¹. The intracellular uptake activity (Kuptake) [2] was 13.7 nM, the relative KD / binding affinity (% of agalsidase beta) [3] was 100% and the relative ka (% of agalsidase beta) [3] was 100%. For the same molecule, the relative kd (% of agalsidase beta) [3] was 100%.

“galsulfase (from UniProt P15848 39-533) (enzyme)” was tested, and the Kd [4] was 0.38 nM, the koff [4] was 0.0013 s⁻¹ and the kon [4] was 3.49e+06 M⁻¹ s⁻¹.

Work on “iduronidase (from UniProt P35475 26-653) (enzyme)” yielded a Kd [5] of 0.59 nM, a koff [5] of 0.00565 s⁻¹ and a kon [5] of 1.69e+07 M⁻¹ s⁻¹.

In the case of “imiglucerase (from UniProt P04062 40-536) (enzyme)”, the Kd [4] is reported as 17.3 nM, the koff [4] is reported as 0.00387 s⁻¹ and the kon [4] is reported as 232000 M⁻¹ s⁻¹.

“long-acting galsulfase conjugate (galsulfase-polyethylene glycol linker-immunoglobulin Fc conjugate) (from UniProt P15848 39-533)” was tested, and the Kd [4] was 1.48 nM, the koff [4] was 0.00122 s⁻¹ and the kon [4] was 832000 M⁻¹ s⁻¹. The Binding affinity to M6PR (vs. 1st ERT) [6] was 25%.

B1: long-acting agalsidase β conjugate (agalsidase β-polyethylene glycol linker-immunoglobulin Fc conjugate) (protein, part only; not given: Fc and PEG linker, UniProt P06280 32-429, looked up, not shown: a dimerising Fc or GST)
chain: LDNGLARTPTMGWLHWERFMCNLDCQEEPDSCISEKLFMEMAELMVSEGWKDAGYEYLCIDDCWMAPQRDSEGRLQADPQRFPHGIRQLANYVHSKGLKLGIYADVGNKTCAGFPGSFGYYDIDAQTFADWGVDLLKFDGCYCDSLENLADGYKHMSLALNRTGRSIVYSCEWPLYMWPFQKPNYTEIRQYCNHWRNFADIDDSWKSIKSILDWTSFNQERIVDVAGPGGWNDPDMLVIGNFGLSWNQQVTQMALWAIMAAPLFMSNDLRHISPQAKALLQDKDVIAINQDPLGKQGYQLRQGDNFEVWERPLSGLAWAVAMINRQEIGGPRSYTIAVASLGKGVACNPACFITQLLPVKRKLGFYEWTSRLRSHINPTGTVLLQLENTMQMSLKDLL
modifications: N-terminus covalently linked to a 10 kDa polyethylene glycol linker (ALD-PEG-ALD), whose other end is linked to the N-terminus of one chain of the immunoglobulin Fc
Molecule B1 has a Binding affinity to M6PR (vs. 1st ERT) [7] of 68%, a relative KD / binding affinity (% of agalsidase beta) [8] of 67.6% and a relative ka (% of agalsidase beta) [8] of 70.4%. For the same molecule, the relative kd (% of agalsidase beta) [8] was 101%, the Intracellular uptake (vs. 1st ERT) [2] was 47% and the intracellular uptake activity (Kuptake) [2] was 29.3 nM. It also gave a Kd [9] of 29.6 nM, a koff [9] of 0.00277 s⁻¹ and a kon [9] of 80000 M⁻¹ s⁻¹.

B2: long-acting imiglucerase conjugate (imiglucerase-polyethylene glycol linker-immunoglobulin Fc conjugate) (protein, part only; not given: Fc and PEG linker, human, UniProt P04062 40-536, looked up, not shown: a dimerising Fc or GST)
chain: ARPCIPKSFGYSSVVCVCNATYCDSFDPPTFPALGTFSRYESTRSGRRMELSMGPIQANHTGTGLLLTLQPEQKFQKVKGFGGAMTDAAALNILALSPPAQNLLLKSYFSEEGIGYNIIRVPMASCDFSIRTYTYADTPDDFQLHNFSLPEEDTKLKIPLIHRALQLAQRPVSLLASPWTSPTWLKTNGAVNGKGSLKGQPGDIYHQTWARYFVKFLDAYAEHKLQFWAVTAENEPSAGLLSGYPFQCLGFTPEHQRDFIARDLGPTLANSTHHNVRLLMLDDQRLLLPHWAKVVLTDPEAAKYVHGIAVHWYLDFLAPAKATLGETHRLFPNTMLFASEACVGSKFWEQSVRLGSWDRGMQYSHSIITNLLYHVVGWTDWNLALNPEGGPNWVRNFVDSPIIVDITKDTFYKQPMFYHLGHFSKFIPEGSQRVGLVASQKNDLDAVALMHPDGSAVVVVLNRSSKDVPLTIKDPAVGFLETISPGYSIHTYLWRRQ
modifications: N-terminus covalently linked to a 10 kDa polyethylene glycol linker (ALD-PEG-ALD), whose other end is linked to the N-terminus of one chain of the immunoglobulin Fc
For B2, the Kd [10] was 79.6 nM, the koff [10] was 0.0039 s⁻¹ and the kon [10] was 49000 M⁻¹ s⁻¹. The Binding affinity to M6PR (vs. 1st ERT) [11] was 22%.

B3: long-acting iduronidase conjugate (laronidase-polyethylene linker-immunoglobulin Fc conjugate) (protein, part only; not given: Fc and PEG linker, UniProt P35475 26-653, looked up, not shown: a dimerising Fc or GST)
chain: AEAPHLVHVDAARALWPLRRFWRSTGFCPPLPHSQADQYVLSWDQQLNLAYVGAVPHRGIKQVRTHWLLELVTTRGSTGRGLSYNFTHLDGYLDLLRENQLLPGFELMGSASGHFTDFEDKQQVFEWKDLVSSLARRYIGRYGLAHVSKWNFETWNEPDHHDFDNVSMTMQGFLNYYDACSEGLRAASPALRLGGPGDSFHTPPRSPLSWGLLRHCHDGTNFFTGEAGVRLDYISLHRKGARSSISILEQEKVVAQQIRQLFPKFADTPIYNDEADPLVGWSLPQPWRADVTYAAMVVKVIAQHQNLLLANTTSAFPYALLSNDNAFLSYHPHPFAQRTLTARFQVNNTRPPHVQLLRKPVLTAMGLLALLDEEQLWAEVSQAGTVLDSNHTVGVLASAHRPQGPADAWRAAVLIYASDDTRAHPNRSVAVTLRLRGVPPGPGLVYVTRYLDNGLCSPDGEWRRLGRPVFPTAEQFRRMRAAEDPVAAAPRPLPAGGRLTLRPALRLPSLLLVHVCARPEKPPGQVTRLRALPLTQGQLVLVWSDEHVGSKCLWTYEIQFSQDGKAYTPVSRKPSTFNLFVFSPDTGAVSGSYRVRALDYWARPGPFSDPVPYLEVPVPRGPPSPGNP
modifications: N-terminus covalently linked to a 10 kDa polyethylene glycol linker (ALD-PEG-ALD), whose other end is linked to the N-terminus of one chain of the immunoglobulin Fc
B3 showed a Kd [12] of 4.72 nM, a koff [12] of 0.00223 s⁻¹ and a kon [12] of 474000 M⁻¹ s⁻¹. It also gave a Binding affinity to M6PR (vs. 1st ERT) [13] of 13%.
